In patent US6825167:

Legend:
αvβ3 integrin (human) [1] = molecular target: αvβ3 integrin (human) (UniProt P06756); assay: cell-based or functional assay
αvβ3 integrin (human) [2] = molecular target: αvβ3 integrin (human) (UniProt P06756); assay: attachment of αvβ3-expressing WM35 cells to wells coated at 1 nmole/well, Cell Counting Kit-8

Chain of UniProt P06756 (P06756 31-1048, chain 1 of 2): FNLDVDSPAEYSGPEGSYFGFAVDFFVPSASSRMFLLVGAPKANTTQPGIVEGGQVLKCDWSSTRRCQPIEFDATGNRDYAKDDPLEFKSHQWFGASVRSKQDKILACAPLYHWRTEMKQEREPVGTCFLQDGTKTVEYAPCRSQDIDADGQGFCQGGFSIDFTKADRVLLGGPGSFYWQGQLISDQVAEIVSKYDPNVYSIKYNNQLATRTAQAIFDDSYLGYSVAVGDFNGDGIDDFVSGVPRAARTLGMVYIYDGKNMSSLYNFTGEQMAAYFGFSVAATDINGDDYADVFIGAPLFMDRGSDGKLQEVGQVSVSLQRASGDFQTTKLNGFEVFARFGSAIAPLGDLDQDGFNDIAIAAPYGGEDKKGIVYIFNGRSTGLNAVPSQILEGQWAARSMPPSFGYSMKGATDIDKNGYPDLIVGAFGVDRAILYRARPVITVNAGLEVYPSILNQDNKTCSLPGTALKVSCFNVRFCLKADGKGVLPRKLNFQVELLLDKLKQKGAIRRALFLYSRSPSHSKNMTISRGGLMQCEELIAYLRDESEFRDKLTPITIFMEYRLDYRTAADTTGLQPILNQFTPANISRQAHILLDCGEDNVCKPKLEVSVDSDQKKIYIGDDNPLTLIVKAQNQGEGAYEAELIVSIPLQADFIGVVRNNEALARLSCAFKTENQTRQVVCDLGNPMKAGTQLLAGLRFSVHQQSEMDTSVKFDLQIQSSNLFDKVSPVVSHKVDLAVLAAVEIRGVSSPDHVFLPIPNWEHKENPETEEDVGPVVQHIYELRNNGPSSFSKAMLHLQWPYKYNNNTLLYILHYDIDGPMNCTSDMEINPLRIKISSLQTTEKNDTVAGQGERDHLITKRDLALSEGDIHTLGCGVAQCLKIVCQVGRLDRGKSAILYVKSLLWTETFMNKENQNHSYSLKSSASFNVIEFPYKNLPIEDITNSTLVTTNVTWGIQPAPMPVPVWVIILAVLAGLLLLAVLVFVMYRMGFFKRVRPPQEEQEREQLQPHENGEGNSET
Chain of UniProt P06756 (P05106 27-788, chain 2 of 2, further chain): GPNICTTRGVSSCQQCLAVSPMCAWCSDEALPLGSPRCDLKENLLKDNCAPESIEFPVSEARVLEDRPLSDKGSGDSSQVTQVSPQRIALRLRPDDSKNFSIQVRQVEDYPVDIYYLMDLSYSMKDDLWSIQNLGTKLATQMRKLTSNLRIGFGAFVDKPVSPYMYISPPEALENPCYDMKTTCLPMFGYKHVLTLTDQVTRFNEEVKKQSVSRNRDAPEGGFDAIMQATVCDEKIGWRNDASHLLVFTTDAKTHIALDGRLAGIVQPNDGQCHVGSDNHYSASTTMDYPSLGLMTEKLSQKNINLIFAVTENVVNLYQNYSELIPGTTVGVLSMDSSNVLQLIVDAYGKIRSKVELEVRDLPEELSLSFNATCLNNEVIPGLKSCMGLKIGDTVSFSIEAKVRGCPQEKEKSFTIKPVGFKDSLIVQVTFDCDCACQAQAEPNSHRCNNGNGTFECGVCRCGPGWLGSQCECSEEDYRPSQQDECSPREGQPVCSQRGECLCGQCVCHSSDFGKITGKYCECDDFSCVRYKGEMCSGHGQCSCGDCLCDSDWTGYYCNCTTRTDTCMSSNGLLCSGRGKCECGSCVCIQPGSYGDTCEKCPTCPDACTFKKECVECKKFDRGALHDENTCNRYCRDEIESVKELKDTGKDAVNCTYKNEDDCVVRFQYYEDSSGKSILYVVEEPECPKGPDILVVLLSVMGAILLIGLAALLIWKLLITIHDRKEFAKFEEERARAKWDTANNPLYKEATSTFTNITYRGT

Substance | HUVEC attachment to coated wells (100% = gelatin-coated wells) (αvβ3 integrin (human) [1]) [%] | direct binding of [125I]-RGD-endostatin to HUVEC (pmole per 10^6 cells) (αvβ3 integrin (human) [1]) [pmol] | increase of HUVEC attachment over native endostatin (αvβ3 integrin (human) [1]) [%] | percent of cells attached (100% = gelatin-coated wells) (αvβ3 integrin (human) [2]) [%]
RGD-human endostatin (from UniProt P39060 1572-1754) | 80 | 1.2 | 40 | 60
human endostatin (from UniProt P39060 1572-1754) | – | – | – | 18
human endostatin-RGD (from UniProt P39060 1572-1754) | 80 | – | 40 | –
